Assay results from article PMC5707625 (Biochemistry, 2017).

How the values were obtained:
BlaC [1] = molecular target: T1, BlaC (Mycobacterium tuberculosis, UniProt P9WKD3); test: […] Å crystal structure; format: binding
BlaC [2] = molecular target: T1, BlaC; test: biochemical; format: binding
[3] = system: O=C(Cc1cccs1)N[C@@H]1C(=O)N2C(C(=O)O)=C(/C=C/c3ccc([N+](=O)[O-])cc3[N+](=O)[O-])CS[C@H]12; test: purified protein; conditions: pH 6.0

T1 sequence (P9WKD3 43-307 limits assumed): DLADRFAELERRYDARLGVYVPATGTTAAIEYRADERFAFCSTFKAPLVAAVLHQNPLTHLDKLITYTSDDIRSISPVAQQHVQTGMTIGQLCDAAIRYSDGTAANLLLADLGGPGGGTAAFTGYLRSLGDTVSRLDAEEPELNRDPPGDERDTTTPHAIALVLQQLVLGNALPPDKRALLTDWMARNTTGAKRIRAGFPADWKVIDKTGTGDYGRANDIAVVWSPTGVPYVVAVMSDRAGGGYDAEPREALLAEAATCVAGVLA

## CC(=O)O [acetate]
BlaC [1]
  2.1 Å crystal structure: acetate occupies the carboxylate binding site and forms hydrogen bridges with residues Ser-130, Thr-235, and Thr-237

## O=P(O)(O)O [phosphate]
BlaC [2]
  Kd: 27 ± 11 mM

## BlaC (Mycobacterium tuberculosis H37Rv)
[3]
  Km: 38 ± 7 µM
  kcat: 69 ± 1 s⁻¹
  kcat/Km: 1.8e+06 ± 300000 M⁻¹ s⁻¹
